Results as given in publication PMC6917434 (Journal of thrombosis and haemostasis : JTH, 2019).
Read-outs that look alike come from different tables or passages of the source.

Key:
Experiment in all cases: single-molecule atomic force microscopy
[1] = target: Factor XIII A subunit of plasma-purified inactive factor XIII (pFXIII-A2B2) (human) (UniProt P00488)
[2] = target: the molecule itself
[3] = target: the molecule itself; remark: listed apart in the source
[4] = target: T1, recombinant inactive factor XIII A subunit from ZymoGenetics (rFXIII-A2) (human), P00488; details: remark: other sources report otherwise
T1 chain: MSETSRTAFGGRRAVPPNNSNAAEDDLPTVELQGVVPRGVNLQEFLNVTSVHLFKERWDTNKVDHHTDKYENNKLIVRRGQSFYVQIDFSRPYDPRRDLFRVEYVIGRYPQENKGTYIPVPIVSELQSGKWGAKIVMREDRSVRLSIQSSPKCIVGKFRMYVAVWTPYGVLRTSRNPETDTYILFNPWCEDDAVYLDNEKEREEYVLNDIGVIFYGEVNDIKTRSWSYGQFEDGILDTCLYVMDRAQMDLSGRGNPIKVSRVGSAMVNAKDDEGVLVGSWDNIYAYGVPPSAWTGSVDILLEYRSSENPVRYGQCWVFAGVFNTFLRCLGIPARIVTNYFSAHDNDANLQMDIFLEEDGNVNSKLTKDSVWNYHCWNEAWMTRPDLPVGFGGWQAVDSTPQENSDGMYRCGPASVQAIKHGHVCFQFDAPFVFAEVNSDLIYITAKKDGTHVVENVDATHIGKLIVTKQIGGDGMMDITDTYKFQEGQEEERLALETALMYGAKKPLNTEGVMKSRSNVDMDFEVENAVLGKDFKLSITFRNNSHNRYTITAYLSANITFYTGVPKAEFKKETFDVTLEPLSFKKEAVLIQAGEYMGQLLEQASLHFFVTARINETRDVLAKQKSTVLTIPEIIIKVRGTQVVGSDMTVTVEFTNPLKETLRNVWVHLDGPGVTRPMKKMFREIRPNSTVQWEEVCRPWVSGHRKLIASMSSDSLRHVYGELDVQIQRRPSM

[5] = target: T1, recombinant inactive factor XIII A …; details: remark: other sources report otherwise

Question: For “Factor XIII A subunit of plasma-purified inactive factor XIII (pFXIII-A2B2) (from UniProt P00488 39-732) (enzyme)”, which stoichiometry N [1] is on record?
Answer: Its stoichiometry N is 2.

B1: recombinant factor XIII B subunit from Zedira (rFXIII-B2) (natural protein, human, UniProt P05160 21-661, looked up)
chain: EEKPCGFPHVENGRIAQYYYTFKSFYFPMSIDKKLSFFCLAGYTTESGRQEEQTTCTTEGWSPEPRCFKKCTKPDLSNGYISDVKLLYKIQENMRYGCASGYKTTGGKDEEVVQCLSDGWSSQPTCRKEHETCLAPELYNGNYSTTQKTFKVKDKVQYECATGYYTAGGKKTEEVECLTYGWSLTPKCTKLKCSSLRLIENGYFHPVKQTYEEGDVVQFFCHENYYLSGSDLIQCYNFGWYPESPVCEGRRNRCPPPPLPINSKIQTHSTTYRHGEIVHIECELNFEIHGSAEIRCEDGKWTEPPKCIEGQEKVACEEPPFIENGAANLHSKIYYNGDKVTYACKSGYLLHGSNEITCNRGKWTLPPECVENNENCKHPPVVMNGAVADGILASYATGSSVEYRCNEYYLLRGSKISRCEQGKWSSPPVCLEPCTVNVDYMNRNNIEMKWKYEGKVLHGDLIDFVCKQGYDLSPLTPLSELSVQCNRGEVKYPLCTRKESKGMCTSPPLIKHGVIISSTVDTYENGSSVEYRCFDHHFLEGSREAYCLDGMWTTPPLCLEPCTLSFTEMEKNNLLLKWDFDNRPHILHGEYIEFICRGDTYPAELYITGSILRMQCDRGQLKYPRCIPRQSTLSYQEPLRT
modifications: glycosylation pattern different from the plasma-purified B subunit (sites not given)
Question: With B1 as the molecule, how does the “stoichiometry N” value [2] read?
Answer: Its value is 2.

B2: Factor XIII B subunit of plasma-purified factor XIII (natural protein, human, UniProt P05160 21-661, looked up)
chain: EEKPCGFPHVENGRIAQYYYTFKSFYFPMSIDKKLSFFCLAGYTTESGRQEEQTTCTTEGWSPEPRCFKKCTKPDLSNGYISDVKLLYKIQENMRYGCASGYKTTGGKDEEVVQCLSDGWSSQPTCRKEHETCLAPELYNGNYSTTQKTFKVKDKVQYECATGYYTAGGKKTEEVECLTYGWSLTPKCTKLKCSSLRLIENGYFHPVKQTYEEGDVVQFFCHENYYLSGSDLIQCYNFGWYPESPVCEGRRNRCPPPPLPINSKIQTHSTTYRHGEIVHIECELNFEIHGSAEIRCEDGKWTEPPKCIEGQEKVACEEPPFIENGAANLHSKIYYNGDKVTYACKSGYLLHGSNEITCNRGKWTLPPECVENNENCKHPPVVMNGAVADGILASYATGSSVEYRCNEYYLLRGSKISRCEQGKWSSPPVCLEPCTVNVDYMNRNNIEMKWKYEGKVLHGDLIDFVCKQGYDLSPLTPLSELSVQCNRGEVKYPLCTRKESKGMCTSPPLIKHGVIISSTVDTYENGSSVEYRCFDHHFLEGSREAYCLDGMWTTPPLCLEPCTLSFTEMEKNNLLLKWDFDNRPHILHGEYIEFICRGDTYPAELYITGSILRMQCDRGQLKYPRCIPRQSTLSYQEPLRT
modifications: glycoprotein (sites not given)
Question: How did the “stoichiometry N” value [3] turn out when B2 was run?
Answer: The value was 2.

B3: recombinant inactive factor XIII A subunit from ZymoGenetics (rFXIII-A2), P00488 1-732 (enzyme)
chain: MSETSRTAFGGRRAVPPNNSNAAEDDLPTVELQGVVPRGVNLQEFLNVTSVHLFKERWDTNKVDHHTDKYENNKLIVRRGQSFYVQIDFSRPYDPRRDLFRVEYVIGRYPQENKGTYIPVPIVSELQSGKWGAKIVMREDRSVRLSIQSSPKCIVGKFRMYVAVWTPYGVLRTSRNPETDTYILFNPWCEDDAVYLDNEKEREEYVLNDIGVIFYGEVNDIKTRSWSYGQFEDGILDTCLYVMDRAQMDLSGRGNPIKVSRVGSAMVNAKDDEGVLVGSWDNIYAYGVPPSAWTGSVDILLEYRSSENPVRYGQCWVFAGVFNTFLRCLGIPARIVTNYFSAHDNDANLQMDIFLEEDGNVNSKLTKDSVWNYHCWNEAWMTRPDLPVGFGGWQAVDSTPQENSDGMYRCGPASVQAIKHGHVCFQFDAPFVFAEVNSDLIYITAKKDGTHVVENVDATHIGKLIVTKQIGGDGMMDITDTYKFQEGQEEERLALETALMYGAKKPLNTEGVMKSRSNVDMDFEVENAVLGKDFKLSITFRNNSHNRYTITAYLSANITFYTGVPKAEFKKETFDVTLEPLSFKKEAVLIQAGEYMGQLLEQASLHFFVTARINETRDVLAKQKSTVLTIPEIIIKVRGTQVVGSDMTVTVEFTNPLKETLRNVWVHLDGPGVTRPMKKMFREIRPNSTVQWEEVCRPWVSGHRKLIASMSSDSLRHVYGELDVQIQRRPSM
Question: Which stoichiometry N [4] does the source give for B3 here?
Answer: Its stoichiometry N is 2.

Question: And the stoichiometry N [5]?
Answer: The stoichiometry N was 2.
